Reference: US20260167741A1

Assays:
[1] = target: monomeric FcγRIIa-131H (human) (UniProt P12318); assay: BLI (Octet), steady-state, antibody on FAB2G sensor
[2] = target: monomeric FcγRIIa-131R (human) (UniProt P12318); assay: as above
[3] = target: monomeric FcγRIIb (human) (UniProt P31994); assay: as above
monomeric FcγRI (human) = monomeric FcγRI (human) (UniProt P12314); assay: BLI (Octet), antibody on FAB2G sensor, monomeric FcγR in solution
[4] = target: monomeric FcγRIIIa-158F (human) (UniProt P08637); assay: as above
[5] = target: monomeric FcγRIIIa-158V (human) (UniProt P08637); assay: as above
[6] = target: tetrameric FcγRI-streptavidin-His labelled with Alexa647 (human) (UniProt P12314); assay: flow cytometry: SKOV-3 (HER2-expressing) cells treated with 100 nM antibody, then tetrameric FcγRI-Alexa647 (50 or 100 nM by paragraph 186, not said on the sheet)
Sequence of tetrameric FcγRI-streptavidin-His labelled with Alexa647 (human) (P12314 other isoform, or with tags, fused parts or gaps limits assumed): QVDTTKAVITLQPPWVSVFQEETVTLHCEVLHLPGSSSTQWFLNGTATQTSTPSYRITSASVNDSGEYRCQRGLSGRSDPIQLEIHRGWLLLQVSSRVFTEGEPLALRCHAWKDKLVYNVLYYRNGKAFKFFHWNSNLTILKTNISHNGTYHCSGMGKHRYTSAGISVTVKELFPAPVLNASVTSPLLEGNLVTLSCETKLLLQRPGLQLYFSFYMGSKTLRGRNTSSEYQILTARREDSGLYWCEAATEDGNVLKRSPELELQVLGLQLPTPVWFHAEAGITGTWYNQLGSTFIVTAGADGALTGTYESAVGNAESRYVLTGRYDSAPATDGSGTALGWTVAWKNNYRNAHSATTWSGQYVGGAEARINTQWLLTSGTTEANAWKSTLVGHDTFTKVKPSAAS

Sequence of monomeric FcγRIIIa-158V (human) (P08637 17-208 F176V limits assumed): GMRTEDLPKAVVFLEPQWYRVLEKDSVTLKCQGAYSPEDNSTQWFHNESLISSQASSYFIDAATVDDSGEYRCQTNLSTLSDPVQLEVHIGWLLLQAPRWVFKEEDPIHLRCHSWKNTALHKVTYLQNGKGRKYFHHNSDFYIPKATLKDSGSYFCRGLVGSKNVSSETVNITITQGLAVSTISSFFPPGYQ
Sequence of monomeric FcγRI (human) (P12314 16-292 limits assumed): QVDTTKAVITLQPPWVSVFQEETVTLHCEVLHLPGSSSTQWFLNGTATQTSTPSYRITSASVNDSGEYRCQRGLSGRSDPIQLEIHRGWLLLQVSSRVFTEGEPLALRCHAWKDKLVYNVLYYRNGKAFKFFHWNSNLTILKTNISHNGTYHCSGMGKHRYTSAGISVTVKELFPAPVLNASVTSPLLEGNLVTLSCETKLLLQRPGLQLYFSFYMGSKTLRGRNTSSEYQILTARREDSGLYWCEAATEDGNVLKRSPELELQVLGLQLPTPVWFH
Sequence of monomeric FcγRIIIa-158F (human) (P08637 17-208 limits assumed): as the sequence (P08637 17-208 F176V limits assumed) above, with V160F counted along it
Sequence of monomeric FcγRIIa-131H (human) (P12318 34-217 limits assumed): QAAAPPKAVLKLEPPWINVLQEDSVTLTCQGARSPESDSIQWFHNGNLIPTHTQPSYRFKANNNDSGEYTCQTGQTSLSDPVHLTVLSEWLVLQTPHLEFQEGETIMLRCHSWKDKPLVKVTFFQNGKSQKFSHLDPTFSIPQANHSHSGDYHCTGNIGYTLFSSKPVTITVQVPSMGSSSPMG
Sequence of monomeric FcγRIIb (human) (P31994 43-217 limits assumed): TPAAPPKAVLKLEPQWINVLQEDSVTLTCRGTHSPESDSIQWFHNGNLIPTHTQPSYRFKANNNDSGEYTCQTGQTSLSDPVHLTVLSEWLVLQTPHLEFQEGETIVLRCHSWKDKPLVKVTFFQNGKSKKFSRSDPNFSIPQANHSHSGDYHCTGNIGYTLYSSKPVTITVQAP
Sequence of monomeric FcγRIIa-131R (human) (P12318 34-217 H167R limits assumed): as the sequence (P12318 34-217 limits assumed) above, with H134R counted along it

Work on Trastuzumab-LALA (antibody) yielded a Kd [1] of 38 µM, a Kd [2] of 22 µM and a Kd [3] of 390 µM. The Kd (monomeric FcγRI (human)) was 136 nM, the koff (monomeric FcγRI (human)) was 0.0203 s⁻¹ and the kon (monomeric FcγRI (human)) was 149000 M⁻¹ s⁻¹. It also gave a Kd [4] of 1360 nM, a koff [4] of 0.033 s⁻¹ and a kon [4] of 24300 M⁻¹ s⁻¹. The Kd [5] was 1190 nM, the koff [5] was 0.0833 s⁻¹ and the kon [5] was 70200 M⁻¹ s⁻¹. For the same substance, the MFI [6] was 709.
